Patent US20230295288A1 (TILLOTTS PHARMA, published 2023)
Substitutions are numbered along the chain they refer to.

B1: Ab-A-DLE-PVAΔG (antibody, human IgG1, kappa)
heavy: EVQLVESGGGLVQPGGSLRLSCKASGIDFNNYGIGWVRQAPGKGLEWITYIYPGFAITNFANSVKGRFTISSDNSKNTVYLQMNSLRAEDTAVYYCARDPVYATSSGYFDLWGQGTLVTVSSASTKGPSVFPLAPSSKSTSGGTAALGCLVKDYFPEPVTVSWNSGALTSGVHTFPAVLQSSGLYSLSSVVTVPSSSLGTQTYICNVNHKPSNTKVDKKVEPKSCDKTHTCPPCPAPPVAGPDVFLFPPKPKDTLMISRTPEVTCVVVDVSHEDPEVKFNWYVDGVEVHNAKTKPREEQYNSTYRVVSVLTVLHQDWLNGKEYKCKVSNKALPLPEEKTISKAKGQPREPQVYTLPPSREEMTKNQVSLTCLVKGFYPSDIAVEWESNGQPENNYKTTPPVLDSDGSFFLYSKLTVDKSRWQQGNVFSCSVMHEALHAHYTQKSLSLSPGK
light: DIQMTQSPSSLSASVGDRVTIKCQASQSIFSGLAWYQQKPGKAPKLLIYGASKLASGVPSRFSGSGSGTEFTLTISGLQPADFATYYCQSYYYSSSSSDGSYAFGGGTKLTVLGRTVAAPSVFIFPPSDEQLKSGTASVVCLLNNFYPREAKVQWKVDNALQSGNSQESVTEQDSKDSTYSLSSTLTLSKADYEKHKVYACEVTHQGLSSPVTKSFNRGEC
B2: Ab-A-AEA-PVAΔG (antibody, human IgG1, kappa)
heavy: B1 heavy with D243S, K330A, L334A, E337A
light: B1 light
B3: Ab-YTE-DLE-PVAΔG (antibody, human IgG1, kappa)
heavy: B1 heavy with M256Y, S258T, T260E, A438N
light: B1 light
B4: Ab-wt (antibody, human IgG1, kappa)
heavy: not shown
light: B1 light
notes: Human IgG1 anti-TNFα antibody with a wild-type Fc region; also called parent antibody; wild-type antibody

Experiments:
[1] = molecular target: T1, monomeric His-tagged human FcRn (human, UniProt P55899 24-297; P61769 21-119); assay: SPR, pH 6.0, KD against that of Ab-wt; pH 6.0; KD ratio to Ab-wt
T1 construct: The b2m chain is an addition from general knowledge; also called hFcRn; neonatal Fc receptor
T1 sequence (P55899 24-297 limits assumed, chain 1 of 2): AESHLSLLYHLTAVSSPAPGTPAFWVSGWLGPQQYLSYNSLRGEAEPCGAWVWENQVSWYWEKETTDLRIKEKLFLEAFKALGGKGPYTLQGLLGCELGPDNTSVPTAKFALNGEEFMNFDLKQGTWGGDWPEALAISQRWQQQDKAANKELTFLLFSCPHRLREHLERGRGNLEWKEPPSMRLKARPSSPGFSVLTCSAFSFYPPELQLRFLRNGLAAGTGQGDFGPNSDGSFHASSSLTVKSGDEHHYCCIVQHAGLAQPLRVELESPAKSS
T1 sequence (P61769 21-119 limits assumed, chain 2 of 2): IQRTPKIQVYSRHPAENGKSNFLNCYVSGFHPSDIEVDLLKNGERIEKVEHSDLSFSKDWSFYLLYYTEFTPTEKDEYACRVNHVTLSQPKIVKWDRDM
Experimental: (§1) SPR was performed using a Biacore 3000 instrument with CM5 sensor chips coupled with anti-TNFα IgG1 antibodies (˜500 resonance units (RU)) using amine-coupling chemistry as described by the manufacturer. The coupling was performed by injecting 2.0 ug/mL of each protein in 10 mM sodium acetate, pH 4.5, using the amine-coupling kit (GE Healthcare). […] All SPR experiments were conducted at 25° C. with a flow rate of 40 ul/min. Binding data were zero-adjusted, and reference cell value subtracted. The Langmuir 1:1 ligand binding model provided by the BlAevaluation software (version 4.1) was used to determine the binding kinetics.

[2] = molecular target: T1, monomeric His-tagged human FcRn; assay: SPR, pH 6.0, KD against that of infliximab; pH 6.0; KD ratio to IFX
Experimental: as §1

TNFα [3] = molecular target: T2, TNFα (human, UniProt P01375 77-233); assay: SPR (Biacore), antibody captured on Protein A, TNFα as analyte, single cycle kinetics, 1:1 model, 25 °C
T2 construct: also called human TNFα
T2 sequence (P01375 77-233 limits assumed): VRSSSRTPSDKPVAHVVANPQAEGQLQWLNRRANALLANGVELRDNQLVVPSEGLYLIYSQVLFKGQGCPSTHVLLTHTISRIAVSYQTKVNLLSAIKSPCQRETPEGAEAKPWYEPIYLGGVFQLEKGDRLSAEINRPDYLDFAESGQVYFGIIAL
Experimental: Affinity to TNFα was measured by Biacore. A CM5 chip was prepared using standard amine immobilisation Biacore procedures. Upon insertion of a CM5 chip the system was primed and then normalised with BIA-normalising solution (Biacore Preventative Maintenance Kit 2). The chip was added to the system with Phosphate Buffered Saline Tween-20 (PBS-T) running buffer; prior to immobilisation the chip surface was primed with three injections of 50 mM NaOH. Protein A was immobilised on the chip surface. For this, the protein was diluted to 5 μg/mL into 10 mM acetate buffer at pH 4.5 and injected so to generate a bound response of ˜1000 RU's in all 4 flow cells. To remove non-covalently bound material from all the chip flow cells, three 15 second 50 mM NaOH washes were performed. On the Protein A chip, antibody was captured in flow cells 2 and 4, with flow cells 1 and 3 used for reference subtraction. The trial antibodies were diluted in PBS-T to 10 nM and 2.5-7.5 uL injected to obtain 120 RU of captured antibody. […] For each single cycle analysis cycle a titration of 5 analyte concentrations were injected over the ligand and then the dissociation of the complex was measured. The surface was regenerated using glycine pH 1.7. A double referencing method was employed in which data from the ligand bound capture surface (fc 2 and 4) were subtracted from the references surfaces where no ligand was captured (fc 1 and 3 respectively). Blank injections of buffer were run every 3-4 cycles and then subtracted from analyte injection cycles, to correct for small changes in the ligand capture surface. Repeat injections of analyte at the start and end of each analytical run were used to check for sample degradation, or changes in the instrument performance. All analysis was performed at 25° C. and the sample rack was incubated at 10° C. during experimental runs. Each experiment was run at least three times. A 1-to-1 binding model was used to fit the resulting kinetic data.

[4] = molecular target: T1, monomeric His-tagged human FcRn; assay: SPR (Biacore 3000), antibody amine-coupled, monomeric His-tagged hFcRn as analyte, pH 6.0, 1:1 Langmuir model, 25 °C; pH 6.0
Experimental: as §1

TNFα [5] = molecular target: T2, TNFα; assay: cell-based or functional assay
CD16b(NA2) = molecular target: T3, CD16b(NA2) (UniProt O75015 17-200, limits assumed); assay: SPR (Biacore), His-tagged FcγR captured on anti-His chip, antibody as analyte, single cycle kinetics, 25 °C
T3 construct: Captured on an anti-His tag chip, so it carried a His tag
T3 sequence (O75015 17-200 N65S limits assumed): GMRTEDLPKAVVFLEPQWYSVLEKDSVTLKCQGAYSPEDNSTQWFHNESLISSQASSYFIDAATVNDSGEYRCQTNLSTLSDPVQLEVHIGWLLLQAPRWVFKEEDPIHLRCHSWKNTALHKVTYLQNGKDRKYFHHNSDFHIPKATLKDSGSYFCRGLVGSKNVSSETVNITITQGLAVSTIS
Experimental: (§2) Affinity to FcγRs was measured by Biacore. A CM5 chip was prepared using standard amine immobilisation Biacore procedures. Upon insertion of a CM5 chip the system was primed and then normalised with BIA-normalizing solution (Biacore Preventative Maintenance Kit 2). The chip was added to the system with PBS-T running buffer; prior to immobilisation the chip surface was primed with three injections of 50 mM NaOH. FcγRs were immobilised on the chip surface using a His-tag capture system. The anti-His tag chip was prepared according to the Biacore kit instructions, with ˜12000 RU's of the antibody deposited on all 4 flow cells. To remove non-covalently bound material from all the chip flow cells, three 30 second 10 mM glycine pH 1.5 washes were performed. The Fcγ receptors were diluted in PBS-T to a range of 0.5-2 μg/mL, with 2.5-5.0 μL injected onto the chip generating capture levels between 60 and 200 RU's. Antibodies were diluted into PBS-T prior to analysis. Single cycle kinetics were used to estimate the steady state affinity. For each single cycle analysis cycle a titration of 5 antibody concentrations were injected over the FcγR ligand and then the dissociation of the complex was measured. The surface was regenerated using the recommended solution, 10 mM glycine pH 1.5 for the anti-His capture surface. A double referencing method was employed in which data from the ligand bound capture surface (fc 2 and 4) were subtracted from the references surfaces where no ligand was captured (fc 1 and 3 respectively). Blank injections of buffer were run for every antibody titration cycle and then subtracted from analyte injection cycles, to correct for small changes in the ligand capture surface. All analysis was performed at 25° C. and the sample rack was incubated at 10° C. during experimental runs. Each experiment was run at least three times.

CD16a(F) = molecular target: T4, CD16a(F) (UniProt P08637 17-208); assay: as above
T4 construct: Captured on an anti-His tag chip, so it carried a His tag
T4 sequence (P08637 17-208 limits assumed): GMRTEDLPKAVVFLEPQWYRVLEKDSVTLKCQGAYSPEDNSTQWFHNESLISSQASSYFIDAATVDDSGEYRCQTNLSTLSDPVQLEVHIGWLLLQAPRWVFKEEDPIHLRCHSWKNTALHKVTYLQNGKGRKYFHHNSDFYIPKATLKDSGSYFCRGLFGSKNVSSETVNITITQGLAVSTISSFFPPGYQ
Experimental: as §2

CD16a(V) = molecular target: T5, CD16a(V) (UniProt P08637 17-208); assay: as above
T5 construct: Captured on an anti-His tag chip, so it carried a His tag; also called Fcγ receptor CD16a(V)
T5 sequence (P08637 17-208 F176V limits assumed): as the sequence (P08637 17-208 limits assumed) above, with F160V counted along it
Experimental: as §2

| Binder | Fold change from wt [1] [fold] | Fold change from IFX [2] [fold] | Kd (TNFα [3]) [nM] | koff (TNFα [3]) [s⁻¹] | kon (TNFα [3]) [M⁻¹ s⁻¹] | Kd [4] [nM] | IC50 (read off the curve), L929 TNFα neutralisation [upper panel] (TNFα [5]) [ng/mL] | Kd (CD16b(NA2)) [nM] | Kd (CD16a(F)) [nM] | Kd (CD16a(V)) [nM] | IC50 (read off the curve), L929 TNFα neutralisation [lower panel] (TNFα [5]) [ng/mL] |
| --- | --- | --- | --- | --- | --- | --- | --- | --- | --- | --- | --- |
| B1 | 6.4 | 2.7 | 0.00288 | 3.04e-05 | 1.13e+07 | 157 | ~7 | 470 | 110 | 68.7 |  |
| B2 |  |  | 0.00251 | 2.19e-05 | 9.16e+06 |  |  | 5180 |  | 260 | ~9 |
| B3 | 11.1 | 4.7 | 0.00157 | 1.28e-05 | 8.14e+06 | 90 |  | 1030 |  | 117 | ~6 |
| B4 |  |  | 0.00413 | 3.45e-05 | 8.37e+06 | 1000 |  | > 3000 |  | 184 | ~7 |
